Assay results as given in patent US20260201064A1 (ISU ABXIS, published 2026).

T1: recombinant human ASM protein (human, UniProt P17405 47-630)
T1 construct: Recombinant human ASM in solution; also called acid sphingomyelinase (ASM) protein
T1 sequence: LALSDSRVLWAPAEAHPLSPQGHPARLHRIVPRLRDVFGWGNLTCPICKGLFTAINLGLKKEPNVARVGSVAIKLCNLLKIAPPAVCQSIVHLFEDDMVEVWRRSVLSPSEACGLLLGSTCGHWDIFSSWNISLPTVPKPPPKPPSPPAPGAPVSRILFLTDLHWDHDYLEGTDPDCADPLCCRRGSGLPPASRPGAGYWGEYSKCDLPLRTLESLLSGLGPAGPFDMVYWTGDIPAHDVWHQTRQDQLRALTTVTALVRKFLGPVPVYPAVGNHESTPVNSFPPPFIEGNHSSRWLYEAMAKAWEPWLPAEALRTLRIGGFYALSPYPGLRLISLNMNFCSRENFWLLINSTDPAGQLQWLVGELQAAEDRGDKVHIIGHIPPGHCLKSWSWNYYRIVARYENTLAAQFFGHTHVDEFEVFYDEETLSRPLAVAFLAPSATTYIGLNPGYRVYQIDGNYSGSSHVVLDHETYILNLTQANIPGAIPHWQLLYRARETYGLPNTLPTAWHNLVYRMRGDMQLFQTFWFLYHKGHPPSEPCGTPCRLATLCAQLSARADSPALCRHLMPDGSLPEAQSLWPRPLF

B1: #9104v-H02 (antibody, human IgG4 S228P, lambda, V domains shown)
VH: EVQLLESGGGLVQPGGSLRLSCAASGFTFSNYYMSWVRQAPGKGLEWVSGIYFGSGDIRYADSVKGRFTISRDNSKNTLYLQMNSLRAEDTAVYYCARDTPGFDYWGQGTLVTVSS
VL: QSVLTQPPSASGTPGQRVTISCTGSSSNIGNNAVNWYQQLPGTAPKLLIYYDSHRPSGVPDRFSGSKSGTSASLAISGLRSEDEADYYCGAWDYSLSAYVFGGGTKLTVLG
notes: Full-length IgG, lambda
B2: #9104v-H05 (antibody, human IgG4 S228P, lambda, V domains shown)
VH: EVQLLESGGGLVQPGGSLRLSCAASGFTFSNYYMSWVRQAPGKGLEWVSGIYYGGVKIYYADSVKGRFTISRDNSKNTLYLQMNSLRAEDTAVYYCARDTPGFDYWGQGTLVTVSS
VL: QSVLTQPPSASGTPGQRVTISCTGSSSNIGNNAVNWYQQLPGTAPKLLIYYDSHRPSGVPDRFSGSKSGTSASLAISGLRSEDEADYYCGAWDYSLSAYVFGGGTKLTVLG
notes: Full-length IgG, lambda
B3: #9104v-H10 (antibody, human IgG4 S228P, lambda, V domains shown)
VH: EVQLLESGGGLVQPGGSLRLSCAASGFTFSNYYMSWVRQAPGKGLEWVSGIYYGNGIPYYADSVKDRFTISRDNSKNTLYLQMNSLRAEDTAVYYCARDTPGFDYWGQGTLVTVSS
VL: QSVLTQPPSASGTPGQRVTISCTGSSSNIGNNAVNWYQQLPGTAPKLLIYYDSHRPSGVPDRFSGSKSGTSASLAISGLRSEDEADYYCGAWDYSLSAYVFGGGTKLTVLG
notes: Full-length IgG, lambda
B4: #9104v-H18 (antibody, human IgG4 S228P, lambda, V domains shown)
VH: EVQLLESGGGLVQPGGSLRLSCAASGFTFSNYYMSWVRQAPGKGLEWVSGIYYGSGTPYYSDSVKGRFTISRDNSKNTLYLQMNSLRAEDTAVYYCARDTPGFDYWGQGTLVTVSS
VL: QSVLTQPPSASGTPGQRVTISCTGSSSNIGNNAVNWYQQLPGTAPKLLIYYDSHRPSGVPDRFSGSKSGTSASLAISGLRSEDEADYYCGAWDYSLSAYVFGGGTKLTVLG
notes: Full-length IgG, lambda
B5: #9104v-H24 (antibody, human IgG4 S228P, lambda, V domains shown)
VH: EVQLLESGGGLVQPGGSLRLSCAASGFTFSNYYMSWVRQAPGKGLEWVSGLYYGSGIPYYADSVKGRFTISRDNSKNTLYLQMNSLRAEDTAVYYCARDTPGFDYWGQGTLVTVSS
VL: QSVLTQPPSASGTPGQRVTISCTGSSSNIGNNAVNWYQQLPGTAPKLLIYYDSHRPSGVPDRFSGSKSGTSASLAISGLRSEDEADYYCGAWDYSLSAYVFGGGTKLTVLG
notes: Full-length IgG, lambda
B6: #9104v-H22 (antibody, human IgG4 S228P, lambda, V domains shown)
VH: EVQLLESGGGLVQPGGSLRLSCAASGFTFSNYYMSWVRQAPGKGLEWVSGLYYGGGTPYYADSVKGRFTISRDNSKNTLYLQMNSLRAEDTAVYYCARDTPGFDYWGQGTLVTVSS
VL: QSVLTQPPSASGTPGQRVTISCTGSSSNIGNNAVNWYQQLPGTAPKLLIYYDSHRPSGVPDRFSGSKSGTSASLAISGLRSEDEADYYCGAWDYSLSAYVFGGGTKLTVLG
notes: Full-length IgG, lambda
B7: #9104v-H25 (antibody, human IgG4 S228P, lambda, V domains shown)
VH: EVQLLESGGGLVQPGGSLRLSCAASGFTFSNYYMSWVRQAPGKGLEWVSGTYYASGGIYYADSVKGRFTISRDNSKNTLYLQMNSLRAEDTAVYYCARDTPGFDYWGQGTLVTVSS
VL: QSVLTQPPSASGTPGQRVTISCTGSSSNIGNNAVNWYQQLPGTAPKLLIYYDSHRPSGVPDRFSGSKSGTSASLAISGLRSEDEADYYCGAWDYSLSAYVFGGGTKLTVLG
notes: Full-length IgG, lambda
B8: #9104v-H11 (antibody, human IgG4 S228P, lambda, V domains shown)
VH: EVQLLESGGGLVQPGGSLRLSCAASGFTFSNYYMSWVRQAPGKGLEWVSGIYYGSGIPYYADSVKERFTISRDNSKNTLYLQMNSLRAEDTAVYYCARDTPGFDYWGQGTLVTVSS
VL: QSVLTQPPSASGTPGQRVTISCTGSSSNIGNNAVNWYQQLPGTAPKLLIYYDSHRPSGVPDRFSGSKSGTSASLAISGLRSEDEADYYCGAWDYSLSAYVFGGGTKLTVLG
notes: Full-length IgG, lambda
B9: #9104v-H26 (antibody, human IgG4 S228P, lambda, V domains shown)
VH: EVQLLESGGGLVQPGGSLRLSCAASGFTFSNYYMSWVRQAPGKGLEWVSGTYYASGNAYYADSVKGRFTISRDNSKNTLYLQMNSLRAEDTAVYYCARDTPGFDYWGQGTLVTVSS
VL: QSVLTQPPSASGTPGQRVTISCTGSSSNIGNNAVNWYQQLPGTAPKLLIYYDSHRPSGVPDRFSGSKSGTSASLAISGLRSEDEADYYCGAWDYSLSAYVFGGGTKLTVLG
notes: Full-length IgG, lambda
B10: #9104v-H27 (antibody, human IgG4 S228P, lambda, V domains shown)
VH: EVQLLESGGGLVQPGGSLRLSCAASGFTFSNYYMSWVRQAPGKGLEWVSGTYYDSGYVYYADSVKGRFTISRDNSKNTLYLQMNSLRAEDTAVYYCARDTPGFDYWGQGTLVTVSS
VL: QSVLTQPPSASGTPGQRVTISCTGSSSNIGNNAVNWYQQLPGTAPKLLIYYDSHRPSGVPDRFSGSKSGTSASLAISGLRSEDEADYYCGAWDYSLSAYVFGGGTKLTVLG
notes: Full-length IgG, lambda
B11: #9104v-H14 (antibody, human IgG4 S228P, lambda, V domains shown)
VH: EVQLLESGGGLVQPGGSLRLSCAASGFTFSNYYMSWVRQAPGKGLEWVSGIYYGSGKPYYADSVKGRFTISRDNSKNTLYLQMNSLRAEDTAVYYCARDTPGFDYWGQGTLVTVSS
VL: QSVLTQPPSASGTPGQRVTISCTGSSSNIGNNAVNWYQQLPGTAPKLLIYYDSHRPSGVPDRFSGSKSGTSASLAISGLRSEDEADYYCGAWDYSLSAYVFGGGTKLTVLG
notes: Full-length IgG, lambda
B12: #9104v-H30 (antibody, human IgG4 S228P, lambda, V domains shown)
VH: EVQLLESGGGLVQPGGSLRLSCAASGFTFSNYYMSWVRQAPGKGLEWVSGTYYSSGGIYYADSVKGRFTISRDNSKNTLYLQMNSLRAEDTAVYYCARDTPGFDYWGQGTLVTVSS
VL: QSVLTQPPSASGTPGQRVTISCTGSSSNIGNNAVNWYQQLPGTAPKLLIYYDSHRPSGVPDRFSGSKSGTSASLAISGLRSEDEADYYCGAWDYSLSAYVFGGGTKLTVLG
notes: Full-length IgG, lambda
B13: #9104v-H19 (antibody, human IgG4 S228P, lambda, V domains shown)
VH: EVQLLESGGGLVQPGGSLRLSCAASGFTFSNYYMSWVRQAPGKGLEWVSGIYYGSGVPYYADSVKGRFTISRDNSKNTLYLQMNSLRAEDTAVYYCARDTPGFDYWGQGTLVTVSS
VL: QSVLTQPPSASGTPGQRVTISCTGSSSNIGNNAVNWYQQLPGTAPKLLIYYDSHRPSGVPDRFSGSKSGTSASLAISGLRSEDEADYYCGAWDYSLSAYVFGGGTKLTVLG
notes: Full-length IgG, lambda
B14: #9104v-H33 (antibody, human IgG4 S228P, lambda, V domains shown)
VH: EVQLLESGGGLVQPGGSLRLSCAASGFTFSNYYMSWVRQAPGKGLEWVSGVYYPSGNPYYADSVKGRFTISRDNSKNTLYLQMNSLRAEDTAVYYCARDTPGFDYWGQGTLVTVSS
VL: QSVLTQPPSASGTPGQRVTISCTGSSSNIGNNAVNWYQQLPGTAPKLLIYYDSHRPSGVPDRFSGSKSGTSASLAISGLRSEDEADYYCGAWDYSLSAYVFGGGTKLTVLG
notes: Full-length IgG, lambda
B15: #9104v-H13 (antibody, human IgG4 S228P, lambda, V domains shown)
VH: EVQLLESGGGLVQPGGSLRLSCAASGFTFSNYYMSWVRQAPGKGLEWVSGIYYGSGIPYYANSVKGRFTISRDNSKNTLYLQMNSLRAEDTAVYYCARDTPGFDYWGQGTLVTVSS
VL: QSVLTQPPSASGTPGQRVTISCTGSSSNIGNNAVNWYQQLPGTAPKLLIYYDSHRPSGVPDRFSGSKSGTSASLAISGLRSEDEADYYCGAWDYSLSAYVFGGGTKLTVLG
notes: Full-length IgG, lambda
B16: #9104v-H31 (antibody, human IgG4 S228P, lambda, V domains shown)
VH: EVQLLESGGGLVQPGGSLRLSCAASGFTFSNYYMSWVRQAPGKGLEWVSGVYYGSGTPYYADSVKGRFTISRDNSKNTLYLQMNSLRAEDTAVYYCARDTPGFDYWGQGTLVTVSS
VL: QSVLTQPPSASGTPGQRVTISCTGSSSNIGNNAVNWYQQLPGTAPKLLIYYDSHRPSGVPDRFSGSKSGTSASLAISGLRSEDEADYYCGAWDYSLSAYVFGGGTKLTVLG
notes: Full-length IgG, lambda
B17: #9104v-H17 (antibody, human IgG4 S228P, lambda, V domains shown)
VH: EVQLLESGGGLVQPGGSLRLSCAASGFTFSNYYMSWVRRAPGKGLEWVSGIYYGSGTPYYAASVKGRFTISRDNSKNTLYLQMNSLRAEDTAVYYCARDTPGFDYWGQGTLVTVSS
VL: QSVLTQPPSASGTPGQRVTISCTGSSSNIGNNAVNWYQQLPGTAPKLLIYYDSHRPSGVPDRFSGSKSGTSASLAISGLRSEDEADYYCGAWDYSLSAYVFGGGTKLTVLG
notes: Full-length IgG, lambda

What follows are binders tested against T1, recombinant human ASM protein (assay: BLI (Octet), antibody on AHC sensor).
Experimental: The binding affinity, to the ASM protein, of the produced antibodies specifically binding to the ASM protein and the interactive dynamics therebetween were measured using an Octet® QK384 system (Pall Life Sciences).
First, an antibody specifically binding to the ASM protein produced in Example 1 was captured using an anti-human IgG Fc capture (AHC) biosensor, and 1.25, 2.5, 5, 10, or 20 nM recombinant human ASM protein solution was added thereto. […] The association constant (Kₐ), dissociation constant (Kd), and equilibrium dissociation constant (KD) for each antibody were determined using Octet® analysis software (Pall Life® Sciences). As a result, the binding affinities, to the human ASM protein, of the antibodies with mutations in the heavy chain CDR regions of the antibody #9104 as depicted in Table 1 are shown in Table 5, and the binding affinities, to the human ASM protein, of the antibodies with mutations of the light chain CDR regions in the antibody #9104 as depicted in Table 2 are shown in Table 6.
B1 was tested, and the Kd was 1.2 nM, the koff was 0.000333 s⁻¹ and the kon was 278000 M⁻¹ s⁻¹.
For B2, the Kd was 1.03 nM, the koff was 0.000177 s⁻¹ and the kon was 171000 M⁻¹ s⁻¹.
Binder B3 has a Kd of 0.651 nM, a koff of 0.000154 s⁻¹ and a kon of 237000 M⁻¹ s⁻¹.
Binder B4 has a Kd of 2.69 nM, a koff of 0.000264 s⁻¹ and a kon of 97900 M⁻¹ s⁻¹.
B5 was tested, and the Kd was 1.01 nM, the koff was 0.000206 s⁻¹ and the kon was 204000 M⁻¹ s⁻¹.
B6 showed a Kd of 0.798 nM, a koff of 0.000157 s⁻¹ and a kon of 197000 M⁻¹ s⁻¹.
B7 showed a Kd of 0.917 nM, a koff of 0.00019 s⁻¹ and a kon of 207000 M⁻¹ s⁻¹.
In the case of B8, the Kd is reported as 0.781 nM, the koff is reported as 0.000195 s⁻¹ and the kon is reported as 250000 M⁻¹ s⁻¹.
In the case of B9, the Kd is reported as 1.74 nM, the koff is reported as 0.000305 s⁻¹ and the kon is reported as 175000 M⁻¹ s⁻¹.
In the case of B10, the Kd is reported as 0.598 nM, the koff is reported as 0.000165 s⁻¹ and the kon is reported as 276000 M⁻¹ s⁻¹.
With B11 the Kd was 0.857 nM, the koff was 0.000281 s⁻¹ and the kon was 328000 M⁻¹ s⁻¹.
With B12 the Kd was 0.762 nM, the koff was 0.000151 s⁻¹ and the kon was 199000 M⁻¹ s⁻¹.
In the case of B13, the Kd is reported as 0.692 nM, the koff is reported as 0.000184 s⁻¹ and the kon is reported as 266000 M⁻¹ s⁻¹.
With B14 the Kd was 0.517 nM, the koff was 0.000108 s⁻¹ and the kon was 208000 M⁻¹ s⁻¹.
In the case of B15, the Kd is reported as 0.803 nM, the koff is reported as 0.000185 s⁻¹ and the kon is reported as 231000 M⁻¹ s⁻¹.
B16 gave a Kd of 0.532 nM, a koff of 0.000141 s⁻¹ and a kon of 266000 M⁻¹ s⁻¹.
For B17, the Kd was 0.719 nM, the koff was 0.000243 s⁻¹ and the kon was 338000 M⁻¹ s⁻¹.
